# In patent US20230250190A1 (published 2023):
# T1: T9 (Tn-MUC1) (PAPGSTAPPAHGVT(α-GalNAc)S(α-GalNAc)APDTRPAPG-OH)
# T1 peptide: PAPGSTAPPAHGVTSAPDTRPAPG
# T2: T8 (Tn-MUC1) (PAPGST(α-GalNAc)APPAHGVTSAPDT(α-GalNAc)RPAPG-OH)
# T2 peptide: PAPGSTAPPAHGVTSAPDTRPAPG
# T3: T11 (Tn-MUC1) (PAPGSTAPPAHGVT(α-GalNAc)SAPDT(α-GalNAc)RPAPG-OH)
# T3 peptide: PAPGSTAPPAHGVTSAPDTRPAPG
# T4: T4 (Tn-MUC1) (PAPGSTAPPAHGVT(α-GalNAc)SAPDTRPAPG-OH)
# T4 peptide: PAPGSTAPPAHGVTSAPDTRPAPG
# Legend:
# Test in all cases: glycopeptide array
# [1] = target: T1, T9 (Tn-MUC1)
# [2] = target: T2, T8 (Tn-MUC1)
# [3] = target: T3, T11 (Tn-MUC1)
# [4] = target: T4, T4 (Tn-MUC1)
Binder,EC50 [1] [µg/mL],EC50 [2] [µg/mL],EC50 [3] [µg/mL],EC50 [4] [µg/mL]
"66 (antibody, V domains shown) VH: QVQLVQSGAEVKKPGASVRVSCKASGYTFTNYYIHWVRQAPGHGLTWMGVINPFDSSTDYAQKFQGRVTMTRDTSTSTVYMDLSSLRSEDTAVYYCARDYMRGHVVFDYWGQGTLVTVSS",0.123,0.123,0.138,0.11
"118 (antibody, V domains shown) VH: QVQLVQSGAEVKKPGASVKVSCKASGYTFTNYYIQWVRQAPGQGLEWMGVINPYDGSTNYAQRFQGKITLTRDTSTTTVYMELSSLGSEDTAVYYCARDYMIGYVVFDYWGQGTMVTVSS",0.102,0.142,0.143,0.097
"70 (antibody, V domains shown) VH: QVQLVQSGAEVKKPGASVKVSCKASGYAFPNYYIHWVRQAPGQGLEWMGVINPYGGSTNYAQKFQGRVTMTRGTSTSTVYLELSSLRSEDTAVYYCARDAMKGDSFFDYWGQGTLVTVSS",0.151,0.149,0.161,0.127
"202 (antibody, V domains shown) VH: QVQLVQSGAEVKNPGASVKFSCKASGYTFINYYLQWLRQAPGQGLEWMGTINPFDGSTSYAQNFQGRVTMTRDTSSTTVYMELNSLKSEDTAVYYCARDSMIGYVLFDSWGQGTLVTVSS",0.119,0.125,0.142,0.104
"94 (antibody, V domains shown) VH: QVQLVQSGAEVKKPGSSVKVSCKASGYTFNSYYIHWVRQAPGQGLTWMGVINPFDGSTDYAQKFQGRVTMTRDTSTSTVYMDLSSLRSEDTAVYYCARDYMRGYVVFDYWGRGTLVTVSS",0.033,0.033,0.04,0.034
"110 (antibody, V domains shown) VH: QVQLVQSGAEMKKPGASVKVSCKASGYTFTNYYIHWVRQAPGQGLEWMGVINPYDGSTNYAQKFQGRVTLTRDTSTTTVYMELSSLRSEDTAVYYCARDYMIGYVVFDFWGQGTLVTVSS",0.139,0.153,0.164,0.127
"53 (antibody, V domains shown) VH: QVQLVQSGAEVKKPGASMTVSCKTSGYTFISYYIHWLRQAPGQGLEWLGVINPFGGATNYAQKFQGRVTMTRDTSTITVYMELSSLRSEDTAVYYCARDAMGGDSHFDFWGQGTLVTVSS",0.126,0.122,0.131,0.112
"126 (antibody, V domains shown) VH: QVQLVQSGAEVKKPGASVKVSCKASGYTFNRYYLHWVRQAPGQGLEWMGVINPYDGSTNYAQKFRGRVTMTRDTSTNTVYMELSSLRSEDTAVYFCARDAMEGDSYFDNWGQGTTVTVSS",0.153,0.168,0.195,0.143
"166 (antibody, V domains shown) VH: QVQLVESGAEVKKPGASVKVSCKASGYTFNRYYIHWVRQAPGQGLEWMGVINPSDGSTNYAQKFRGRITMTRDTSTNIVYMELSSLRSEDTAVYFCARDAMGGDSYFDNWGQGTLVTVSS",0.095,1.85,1.68,0.108
"114 (antibody, V domains shown) VH: QVQLVQSGAEMKKPGASVTVSCKASGYTFTNYYIQWVRQAPGQGLEWMGVINPYDGSTNYAQRFQGRVTLTRDTTTTTVNMELSGLRSEDTAVYYCARDYMIGYVVFDFWGQGTLVTVSS",0.076,0.085,0.09,0.087
"154 (antibody, V domains shown) VH: QVQLVQSGAEVKKSGASVKVSCKASGYIFTSYYIQWVRQAPGQGLEWMGVINPFDGSTDYAQKFQGRVTVTRDTSTTTVFMELSSLRSEDTAVYYCARDNMLGYVLFDYWGQGTLVTVSS",0.106,0.162,0.196,0.13
"186 (antibody, V domains shown) VH: QVQLVQSGAEVKKPGASVKVSCKASGYTFNRYYIHWVRQAPGQGLEWMGVINPYDGSTNYAQKFRGRITMTRDTSTNTVYMDLSSLRSEDTAVYFCARDAMEGDSYLDNWGRGTLVTVSS",0.132,0.203,0.213,0.118
"122 (antibody, V domains shown) VH: EVQLLESGAEVKKPGASVKVSCKASGYTFNRYYIHWVRQAPGQGLEWMGVINPYDGSTDYAQKFRDRITMTRDTSTNTVYMDLSSLRSEDTAVYFCARDAMEGDSYFDNWGRGTLVTVSS",0.1,0.121,0.133,0.108
"49 (antibody, V domains shown) VH: QVQLVESGAEVKKPGASVKVSCKASGYTFTRYYLHWVRQAPGQGLEWMGVINPYGGATNYAQKFQGRVTLTRDTSTSTVYMELNSLRSEDTAVYFCARDAMEGNSYFDHWGPGTLVTVSS",0.12,0.124,0.132,0.102
"21 (antibody, V domains shown) VH: QVQLVQSGAEVRKPGASVKFSCKASGYSFTHYYVHWVRQAPGQGLEWMGVINPFDSSTNYARKFQGRVTMTRDTSTTTVYMDLSSLRSEDTAVYFCARDAMEGDSYFDYWGQGTLVTVSS",0.058,0.061,0.071,0.051
"134 (antibody, V domains shown) VH: QVQLVQSGAEVKKPGASVEVSCKASGYTFINYYIHWVRQAPGQGLEWMGVINPFDGSTNYAQKFQGRVTVTRDTSTSTVFLDLSSLRPEDTAVYYCARDSMIGYVLFDYWGQGTLVTVSS",0.095,0.113,0.131,0.11
"17 (antibody, V domains shown) VH: QVQLVQSGAEVKKPGASVRVSCKASGYPFINYYIQWVRQAPGQGLEWMGVVNPYDGSTNYAQKFQGRVSITRDASTSTVFMELNSLRSEDTAVYYCARDSMLGHVIFDFWGQGTLVTVSS",0.102,0.104,0.126,0.098
"98 (antibody, V domains shown) VH: QVQLVQSGAEVKKPGASVKVSCKASGYTFTSYYIQWLRQAPGQGLEWMGVINPTGGATNYAQKFQGRVTMTRETSTSMVHMELSSLRSEDTAVYYCARDYMRGYVVFDYWGQGTLVTVSS",0.102,0.263,0.395,0.116
"158 (antibody, V domains shown) VH: QVQLVQSGAEVKKPGASVKVSCKASGYTFTSYYMHWVRQAPGQGLEWMGVINPFDGSTNYAQKFQGRVTVTRDTATTTVFMDLSSLRSEDTAVYYCARDNMLGYVLFDYWGQGTLVTVSS",0.088,0.242,0.235,0.095
"182 (antibody, V domains shown) VH: QVQLVQSGAEVKKPGASVKVSCKASGYSFTYSYIQWVRLAPGRGLEWMGVINPYDGSTDYAQKFQGRVTLTRDTSTTTVYMELSSLTSEDTAVYYCARDFMIGYVVFDYWGQGTLVTVSS",0.085,0.098,0.11,0.093
"142 (antibody, V domains shown) VH: QVQLVQSGAEVKKPGASVMLSCKASGYIFTSYYIQWVRQAPGQGLEWMGVVNPYDGSTNYAQKFQGRVSITRDTSTSTVFMELNSLRSEDTAVYYCARDSMLGHVIFDFWGQGTLVTVSS",0.091,0.108,0.126,0.089
"130 (antibody, V domains shown) VH: QVQLVQSGAEVKKPGASVRVSCKASGYTFINYYLQWVRQAPGQGLEWMGTINPFDGSTHYAQKFQGRVTLTRDTSTSTVYMELNSLRSDDTAVYYCARDYMIGYVLFDYWGQGTLVTVSS",0.117,0.116,0.14,0.125
"41 (antibody, V domains shown) VH: QVQLVQSGAEVKEPGASMTLSCKTSGYTFISNYIHWLRQAPGQGLEWLGVINPFGGATNYAQKFQGRVTMTRDTSTITVYMELSSLRSEDTAVYYCARDAMGGDSHFDYWGQGTLVTVSS",0.113,0.114,0.134,0.1
"190 (antibody, V domains shown) VH: QVQLVQSGAEVKKPGASVKVSCKASGYAFTNYYIHWVRQAPGHGLTWMGVINPFDSSTDFAQKFQGRLTMTRDTSTSTVYMDLSSLRSEDTAVYYCARDYMRGHVVFDNWGQGTLVTVSS",0.12,0.108,0.122,0.102
"138 (antibody, V domains shown) VH: QVQLVQSGAEVKKPGASVRVSCKASGYTFINYYLQWVRQAPGQGLEWMGTINPFDGSTHYAQKFQGRVTMTRDTSTSTVYMELSSLRSEDTAVYYCARDSMIGYVLFDYWGQGTLVTVSS",0.096,0.106,0.123,0.116
"62 (antibody, V domains shown) VH: QVQLVESGAEVKKPGASVKVSCKASGYSFTSYYIQWVRQAPGQGLEWLAVINPIDGSTNYAQKFQGRVTVTRDTSTSTVYMELSSLRSEDTAVYYCARDYMRGFVVFDYWGQGTLVTVSS",0.045,0.07,0.097,0.042
